{"source": "paper PMC12470938", "target": "T1, Rme1 (Trichoderma reesei) (UniProt G0RR27)", "T1 sequence": "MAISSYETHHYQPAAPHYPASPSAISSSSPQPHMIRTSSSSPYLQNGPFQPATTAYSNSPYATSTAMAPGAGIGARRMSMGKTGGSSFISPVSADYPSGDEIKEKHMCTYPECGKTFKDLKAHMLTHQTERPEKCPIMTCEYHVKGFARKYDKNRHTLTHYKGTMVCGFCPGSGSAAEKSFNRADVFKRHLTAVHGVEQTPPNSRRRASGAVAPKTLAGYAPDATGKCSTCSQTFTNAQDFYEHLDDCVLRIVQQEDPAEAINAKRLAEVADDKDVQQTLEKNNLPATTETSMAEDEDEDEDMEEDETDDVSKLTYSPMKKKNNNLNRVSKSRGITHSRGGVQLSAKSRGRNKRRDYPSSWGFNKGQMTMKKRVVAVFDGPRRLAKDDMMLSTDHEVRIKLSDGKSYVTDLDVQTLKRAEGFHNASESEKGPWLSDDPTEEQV", "experiment": "EMSA", "conditions": "20 mM Tris-HCl pH 7.4, 50 mM KCl, 5% glycerol, 1 mM DTT, 50 µg/mL BSA, 50 µM zinc sulfate; 100 ng probe, 25 min at room temperature; 6% native PAGE at 4 °C"}
{"sequence": "AGCAGCAGCGGCAATAACAAATACAGTAACAAATGGGGACCAGAATGCGAATTTGAAACGACAGGAACGAACACGGAGGAGGGGGCGGGGGTTGGCACGTTGGCTAAAGAATATTTCTACCTATCCACAGATGTAGC (double strand) [Pswo probe]", "values": [{"measurement": "binding", "result": "no binding"}]}
